Drawing on US20150344570A1 (published 2015), this text covers Ho/Con_2b and He/Con_2b for 26 molecules.

T1: human FcγRIIb extracellular domain with C-terminal His tag (human, UniProt P31994 43-217)
T1 construct: extracellular domain; also called FcgRIIb; 2b; not shown: His tag attached to the C terminus
T1 sequence (looked up): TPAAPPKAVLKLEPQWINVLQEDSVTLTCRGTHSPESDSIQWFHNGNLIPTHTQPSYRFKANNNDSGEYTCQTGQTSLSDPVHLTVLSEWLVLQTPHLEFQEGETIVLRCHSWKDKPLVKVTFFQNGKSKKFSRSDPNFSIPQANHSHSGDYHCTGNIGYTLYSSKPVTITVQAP

B1: GpH7-B3 variant S239_01G/GpL16-k0 (Ho Ab) (antibody, human IgG1, kappa)
heavy: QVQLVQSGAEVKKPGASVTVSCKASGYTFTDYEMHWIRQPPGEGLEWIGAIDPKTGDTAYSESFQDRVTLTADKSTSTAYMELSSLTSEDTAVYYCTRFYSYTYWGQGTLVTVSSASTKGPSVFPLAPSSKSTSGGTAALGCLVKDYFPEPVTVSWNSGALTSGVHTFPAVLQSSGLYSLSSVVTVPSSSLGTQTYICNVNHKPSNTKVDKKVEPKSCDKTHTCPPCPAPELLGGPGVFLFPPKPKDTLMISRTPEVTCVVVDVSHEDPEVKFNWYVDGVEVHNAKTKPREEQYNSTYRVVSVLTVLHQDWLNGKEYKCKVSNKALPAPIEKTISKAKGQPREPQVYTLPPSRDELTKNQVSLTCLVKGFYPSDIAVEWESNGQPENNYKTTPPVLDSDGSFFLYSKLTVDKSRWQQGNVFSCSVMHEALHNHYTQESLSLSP
light: DIVMTQSPLSLPVTPGEPASISCQASESLVHSNRNTYLHWYLQKPGQSPQLLIYKVSNRFSGVPDRFSGSGSGTDFTLKISRVEAEDVGVYYCSQNTHVPPTFGQGTKVEIERTVAAPSVFIFPPSDEQLKSGTASVVCLLNNFYPREAKVQWKVDNALQSGNSQESVTEQDSKDSTYSLSSTLTLSKADYEKHKVYACEVTHQGLSSPVTKSFNRGEC
notes: Anti-glypican-3 IgG1; mutation in both H chains; also called S239G homodimerized antibody
B2: GpH7-A5/GpH7-B3 variant L328_03V/GpL16-k0 (He Ab) (antibody, human IgG1, kappa)
heavy 1: not shown
heavy 2: not shown
light: B1 light
notes: Anti-glypican-3 IgG1; mutation only in the GpH7-B3-derived H chain; also called L328V heterodimerized antibody
B3: GpH7-A5/GpH7-B3 variant T335_04F/GpL16-k0 (He Ab) (antibody, human IgG1, kappa)
heavy 1: not shown
heavy 2: not shown
light: B1 light
notes: Anti-glypican-3 IgG1; mutation only in the GpH7-B3-derived H chain; also called T335F heterodimerized antibody
B4: GpH7-A5/GpH7-B3 variant L328_07I/GpL16-k0 (He Ab) (antibody, human IgG1, kappa)
heavy 1: not shown
heavy 2: not shown
light: B1 light
notes: Anti-glypican-3 IgG1; mutation only in the GpH7-B3-derived H chain; also called L328I heterodimerized antibody
B5: GpH7-B3 variant S267_10E/GpL16-k0 (Ho Ab) (antibody, human IgG1, kappa)
heavy: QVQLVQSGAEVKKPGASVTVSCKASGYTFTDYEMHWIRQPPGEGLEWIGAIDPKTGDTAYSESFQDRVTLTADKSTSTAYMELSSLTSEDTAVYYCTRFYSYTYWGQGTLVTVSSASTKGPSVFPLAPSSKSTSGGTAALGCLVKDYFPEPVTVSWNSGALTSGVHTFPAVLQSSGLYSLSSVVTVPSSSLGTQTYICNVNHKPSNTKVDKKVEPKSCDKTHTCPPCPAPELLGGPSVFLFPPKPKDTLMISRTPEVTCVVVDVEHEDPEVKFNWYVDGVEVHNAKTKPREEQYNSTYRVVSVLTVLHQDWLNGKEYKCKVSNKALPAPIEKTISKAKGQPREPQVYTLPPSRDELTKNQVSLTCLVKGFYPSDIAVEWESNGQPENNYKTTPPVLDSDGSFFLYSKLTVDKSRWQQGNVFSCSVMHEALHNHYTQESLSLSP
light: B1 light
notes: Anti-glypican-3 IgG1; mutation in both H chains; also called S267E homodimerized antibody
B6: GpH7-B3 variant S267_03V/GpL16-k0 (Ho Ab) (antibody, human IgG1, kappa)
heavy: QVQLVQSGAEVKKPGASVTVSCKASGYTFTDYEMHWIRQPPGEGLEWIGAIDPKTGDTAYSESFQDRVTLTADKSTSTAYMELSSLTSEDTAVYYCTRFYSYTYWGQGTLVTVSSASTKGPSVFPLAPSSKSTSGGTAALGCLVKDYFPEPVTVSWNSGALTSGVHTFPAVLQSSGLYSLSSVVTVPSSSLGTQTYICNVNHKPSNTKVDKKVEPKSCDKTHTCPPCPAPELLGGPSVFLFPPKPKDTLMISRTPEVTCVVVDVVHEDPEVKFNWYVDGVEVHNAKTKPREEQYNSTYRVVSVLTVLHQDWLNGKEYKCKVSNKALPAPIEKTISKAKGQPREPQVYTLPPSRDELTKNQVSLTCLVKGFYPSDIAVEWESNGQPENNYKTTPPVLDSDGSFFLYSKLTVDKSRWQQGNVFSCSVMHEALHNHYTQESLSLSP
light: B1 light
notes: Anti-glypican-3 IgG1; mutation in both H chains; also called S267V homodimerized antibody
B7: GpH7-A5/GpH7-B3 variant S337_09D/GpL16-k0 (He Ab) (antibody, human IgG1, kappa)
heavy 1: not shown
heavy 2: not shown
light: B1 light
notes: Anti-glypican-3 IgG1; mutation only in the GpH7-B3-derived H chain; also called S337D heterodimerized antibody
B8: GpH7-A5/GpH7-B3 variant K334_18N/GpL16-k0 (He Ab) (antibody, human IgG1, kappa)
heavy 1: not shown
heavy 2: not shown
light: B1 light
notes: Anti-glypican-3 IgG1; mutation only in the GpH7-B3-derived H chain; also called K334N heterodimerized antibody
B9: GpH7-A5/GpH7-B3 variant S267_10E/GpL16-k0 (He Ab) (antibody, human IgG1, kappa)
heavy 1: not shown
heavy 2: not shown
light: B1 light
notes: Anti-glypican-3 IgG1; mutation only in the GpH7-B3-derived H chain; also called S267E heterodimerized antibody
B10: GpH7-A5/GpH7-B3 variant S267_02A/GpL16-k0 (He Ab) (antibody, human IgG1, kappa)
heavy 1: not shown
heavy 2: not shown
light: B1 light
notes: Anti-glypican-3 IgG1; mutation only in the GpH7-B3-derived H chain; also called S267A heterodimerized antibody
B11: GpH7-A5/GpH7-B3 variant S337_14T/GpL16-k0 (He Ab) (antibody, human IgG1, kappa)
heavy 1: not shown
heavy 2: not shown
light: B1 light
notes: Anti-glypican-3 IgG1; mutation only in the GpH7-B3-derived H chain; also called S337T heterodimerized antibody
B12: GpH7-A5/GpH7-B3 variant S298_08L/GpL16-k0 (He Ab) (antibody, human IgG1, kappa)
heavy 1: not shown
heavy 2: not shown
light: B1 light
notes: Anti-glypican-3 IgG1; mutation only in the GpH7-B3-derived H chain; also called S298L heterodimerized antibody
B13: GpH7-B3 variant S267_09D/GpL16-k0 (Ho Ab) (antibody, human IgG1, kappa)
heavy: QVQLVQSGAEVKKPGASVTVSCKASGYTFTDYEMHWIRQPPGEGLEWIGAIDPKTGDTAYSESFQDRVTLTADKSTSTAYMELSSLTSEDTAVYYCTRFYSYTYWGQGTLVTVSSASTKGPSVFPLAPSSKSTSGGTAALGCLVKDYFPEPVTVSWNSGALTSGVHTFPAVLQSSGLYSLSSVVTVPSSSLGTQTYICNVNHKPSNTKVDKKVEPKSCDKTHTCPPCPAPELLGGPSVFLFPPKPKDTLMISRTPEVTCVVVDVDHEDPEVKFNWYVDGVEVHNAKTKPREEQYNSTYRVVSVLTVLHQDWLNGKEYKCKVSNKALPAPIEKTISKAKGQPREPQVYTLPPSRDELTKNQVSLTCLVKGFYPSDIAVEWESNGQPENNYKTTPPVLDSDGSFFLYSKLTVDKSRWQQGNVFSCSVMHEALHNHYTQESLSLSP
light: B1 light
notes: Anti-glypican-3 IgG1; mutation in both H chains; also called S267D homodimerized antibody
B14: GpH7-B3 variant T335_08L/GpL16-k0 (Ho Ab) (antibody, human IgG1, kappa)
heavy: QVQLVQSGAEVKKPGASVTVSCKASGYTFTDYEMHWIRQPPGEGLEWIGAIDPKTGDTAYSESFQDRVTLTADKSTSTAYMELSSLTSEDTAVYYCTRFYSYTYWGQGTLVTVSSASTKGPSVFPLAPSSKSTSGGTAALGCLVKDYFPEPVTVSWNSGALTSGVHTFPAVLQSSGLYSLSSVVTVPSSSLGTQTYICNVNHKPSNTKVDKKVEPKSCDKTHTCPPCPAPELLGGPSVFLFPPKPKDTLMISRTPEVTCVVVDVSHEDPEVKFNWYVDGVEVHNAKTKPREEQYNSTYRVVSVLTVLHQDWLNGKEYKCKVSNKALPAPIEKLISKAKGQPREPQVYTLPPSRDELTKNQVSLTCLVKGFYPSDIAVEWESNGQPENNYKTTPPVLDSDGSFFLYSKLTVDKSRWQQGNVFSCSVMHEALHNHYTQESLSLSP
light: B1 light
notes: Anti-glypican-3 IgG1; mutation in both H chains; also called T335L homodimerized antibody
B15: GpH7-B3 variant S267_14T/GpL16-k0 (Ho Ab) (antibody, human IgG1, kappa)
heavy: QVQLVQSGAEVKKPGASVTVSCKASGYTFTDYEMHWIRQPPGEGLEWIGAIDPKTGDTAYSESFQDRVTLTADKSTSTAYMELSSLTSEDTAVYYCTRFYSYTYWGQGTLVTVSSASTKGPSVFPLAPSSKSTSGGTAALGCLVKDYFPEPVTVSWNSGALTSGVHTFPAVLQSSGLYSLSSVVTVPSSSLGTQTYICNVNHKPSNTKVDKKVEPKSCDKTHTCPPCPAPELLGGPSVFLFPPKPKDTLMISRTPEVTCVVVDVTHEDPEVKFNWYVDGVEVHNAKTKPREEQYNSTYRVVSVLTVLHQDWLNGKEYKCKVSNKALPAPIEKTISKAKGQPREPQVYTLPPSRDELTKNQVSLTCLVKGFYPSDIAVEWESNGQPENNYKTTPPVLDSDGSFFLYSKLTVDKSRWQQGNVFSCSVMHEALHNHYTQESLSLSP
light: B1 light
notes: Anti-glypican-3 IgG1; mutation in both H chains; also called S267T homodimerized antibody
B16: GpH7-A5/GpH7-B3 variant K334_16H/GpL16-k0 (He Ab) (antibody, human IgG1, kappa)
heavy 1: not shown
heavy 2: not shown
light: B1 light
notes: Anti-glypican-3 IgG1; mutation only in the GpH7-B3-derived H chain; also called K334H heterodimerized antibody
B17: GpH7-A5/GpH7-B3 variant S267_07I/GpL16-k0 (He Ab) (antibody, human IgG1, kappa)
heavy 1: not shown
heavy 2: not shown
light: B1 light
notes: Anti-glypican-3 IgG1; mutation only in the GpH7-B3-derived H chain; also called S267I heterodimerized antibody
B18: GpH7-A5/GpH7-B3 variant S267_14T/GpL16-k0 (He Ab) (antibody, human IgG1, kappa)
heavy 1: not shown
heavy 2: not shown
light: B1 light
notes: Anti-glypican-3 IgG1; mutation only in the GpH7-B3-derived H chain; also called S267T heterodimerized antibody
B19: GpH7-A5/GpH7-B3 variant S267_03V/GpL16-k0 (He Ab) (antibody, human IgG1, kappa)
heavy 1: not shown
heavy 2: not shown
light: B1 light
notes: Anti-glypican-3 IgG1; mutation only in the GpH7-B3-derived H chain; also called S267V heterodimerized antibody
B20: GpH7-B3 variant S267_08L/GpL16-k0 (Ho Ab) (antibody, human IgG1, kappa)
heavy: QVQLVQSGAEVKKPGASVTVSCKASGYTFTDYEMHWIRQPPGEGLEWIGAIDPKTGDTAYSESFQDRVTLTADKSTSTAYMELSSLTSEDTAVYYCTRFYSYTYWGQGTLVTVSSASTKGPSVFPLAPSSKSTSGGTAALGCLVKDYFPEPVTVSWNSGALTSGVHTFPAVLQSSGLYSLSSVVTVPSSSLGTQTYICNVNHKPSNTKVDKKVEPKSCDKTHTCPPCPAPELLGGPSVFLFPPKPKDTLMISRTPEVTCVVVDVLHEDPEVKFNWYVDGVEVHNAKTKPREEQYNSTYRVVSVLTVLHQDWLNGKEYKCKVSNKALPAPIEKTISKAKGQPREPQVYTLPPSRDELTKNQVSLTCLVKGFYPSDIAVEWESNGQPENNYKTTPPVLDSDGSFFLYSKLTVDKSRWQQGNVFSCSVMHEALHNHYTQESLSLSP
light: B1 light
notes: Anti-glypican-3 IgG1; mutation in both H chains; also called S267L homodimerized antibody
B21: GpH7-A5/GpH7-B3 variant S267_08L/GpL16-k0 (He Ab) (antibody, human IgG1, kappa)
heavy 1: not shown
heavy 2: not shown
light: B1 light
notes: Anti-glypican-3 IgG1; mutation only in the GpH7-B3-derived H chain; also called S267L heterodimerized antibody
B22: GpH7-A5/GpH7-B3 variant K334_15Y/GpL16-k0 (He Ab) (antibody, human IgG1, kappa)
heavy 1: not shown
heavy 2: not shown
light: B1 light
notes: Anti-glypican-3 IgG1; mutation only in the GpH7-B3-derived H chain; also called K334Y heterodimerized antibody
B23: GpH7-A5/GpH7-B3 variant S337_10E/GpL16-k0 (He Ab) (antibody, human IgG1, kappa)
heavy 1: not shown
heavy 2: not shown
light: B1 light
notes: Anti-glypican-3 IgG1; mutation only in the GpH7-B3-derived H chain; also called S337E heterodimerized antibody
B24: GpH7-A5/GpH7-B3 variant S267_09D/GpL16-k0 (He Ab) (antibody, human IgG1, kappa)
heavy 1: not shown
heavy 2: not shown
light: B1 light
notes: Anti-glypican-3 IgG1; mutation only in the GpH7-B3-derived H chain; also called S267D heterodimerized antibody
B25: GpH7-B3 variant T335_04F/GpL16-k0 (Ho Ab) (antibody, human IgG1, kappa)
heavy: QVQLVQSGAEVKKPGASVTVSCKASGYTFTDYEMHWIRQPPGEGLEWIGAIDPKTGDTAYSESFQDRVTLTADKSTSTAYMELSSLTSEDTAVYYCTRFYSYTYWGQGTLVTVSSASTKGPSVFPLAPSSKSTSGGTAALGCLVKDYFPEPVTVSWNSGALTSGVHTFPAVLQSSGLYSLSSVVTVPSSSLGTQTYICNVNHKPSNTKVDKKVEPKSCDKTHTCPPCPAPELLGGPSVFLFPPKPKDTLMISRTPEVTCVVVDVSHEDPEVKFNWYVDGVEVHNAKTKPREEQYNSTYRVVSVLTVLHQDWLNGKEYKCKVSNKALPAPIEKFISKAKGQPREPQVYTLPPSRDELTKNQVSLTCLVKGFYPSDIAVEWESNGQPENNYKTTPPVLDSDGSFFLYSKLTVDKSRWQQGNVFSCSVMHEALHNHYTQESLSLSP
light: B1 light
notes: Anti-glypican-3 IgG1; mutation in both H chains; also called T335F homodimerized antibody
B26: GpH7-B3 variant S337_10E/GpL16-k0 (Ho Ab) (antibody, human IgG1, kappa)
heavy: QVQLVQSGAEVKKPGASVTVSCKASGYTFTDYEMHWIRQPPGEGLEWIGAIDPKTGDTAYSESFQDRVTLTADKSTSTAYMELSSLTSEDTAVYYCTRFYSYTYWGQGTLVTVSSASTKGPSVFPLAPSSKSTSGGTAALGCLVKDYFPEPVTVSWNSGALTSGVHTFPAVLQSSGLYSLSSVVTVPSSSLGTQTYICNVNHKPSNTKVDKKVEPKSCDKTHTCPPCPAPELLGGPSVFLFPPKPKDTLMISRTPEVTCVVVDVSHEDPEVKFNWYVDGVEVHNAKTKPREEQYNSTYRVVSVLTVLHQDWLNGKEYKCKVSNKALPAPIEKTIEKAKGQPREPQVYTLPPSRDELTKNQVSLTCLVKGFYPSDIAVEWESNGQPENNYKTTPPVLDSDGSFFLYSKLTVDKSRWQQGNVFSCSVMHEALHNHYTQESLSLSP
light: B1 light
notes: Anti-glypican-3 IgG1; mutation in both H chains; also called S337E homodimerized antibody

The target in this assay is T1, human FcγRIIb extracellular domain with …. Nature of the assay: SPR (Biacore T100), antibody captured on antigen peptide chip, FcγRIIb as analyte; relative binding. As for the experimental part:
Analysis of interaction between objective antibody and the FcγR was carried out using Biacore T100 (GE Healthcare). HBS-EP+ (GE Healthcare) was used as the running buffer, and the measurement temperature was set to 25° C. Chips produced by immobilizing the antigen peptide by the amine coupling method to a Series S Sencor Chip CM5 (GE Healthcare), or alternatively, chips produced by allowing preliminarily biotinylated antigen peptides to interact with and immobilize onto a Series S Sensor Chip SA (certified) (GE Healthcare) were used. Antibodies of interest were captured onto an antigen peptide-immobilized chip, and allowed to interact to each FcγR diluted with running buffer. To regenerate and repeatedly use the chip, the antibodies captured on the chip were washed off by reacting 10 mM glycine-HCl, pH 1.5.
On the technique in general: Surface plasmon resonance follows binding to a sensor surface in real time, without labels.
As to B1, the Ho/Con_2b is 174 % of control GpH7-B3/GpL16-k0 (=100).
Turning to B2, the He/Con_2b was 126 % of control GpH7-A5/GpH7-B3/GpL16-k0 (=100).
Turning to B3, the He/Con_2b is 103 % of control GpH7-A5/GpH7-B3/GpL16-k0 (=100).
The same measure, in the same setting: as for B4, the figure is 160 % of control GpH7-A5/GpH7-B3/GpL16-k0 (=100).
For B5, the Ho/Con_2b is 396 % of control GpH7-B3/GpL16-k0 (=100).
On the same count and under the same terms, the value for B6 was 206 % of control GpH7-B3/GpL16-k0 (=100).
With B7, the He/Con_2b is 114 % of control GpH7-A5/GpH7-B3/GpL16-k0 (=100).
The same measure, in the same setting: as for B8, the figure is 115 % of control GpH7-A5/GpH7-B3/GpL16-k0 (=100).
On to B9, for which the He/Con_2b was 379 % of control GpH7-A5/GpH7-B3/GpL16-k0 (=100).
The same measure, in the same setting: the value for B10 was 243 % of control GpH7-A5/GpH7-B3/GpL16-k0 (=100); that for B11 was 105 % of control GpH7-A5/GpH7-B3/GpL16-k0 (=100).
As for B12, the He/Con_2b was 108 % of control GpH7-A5/GpH7-B3/GpL16-k0 (=100).
B13: the Ho/Con_2b was 327 % of control GpH7-B3/GpL16-k0 (=100).
Still for that read-out and setting: as for B14, the figure is 106 % of control GpH7-B3/GpL16-k0 (=100); as for B15, 106 % of control GpH7-B3/GpL16-k0 (=100).
B16: the He/Con_2b was 113 % of control GpH7-A5/GpH7-B3/GpL16-k0 (=100).
Turning to B17, the He/Con_2b was 192 % of control GpH7-A5/GpH7-B3/GpL16-k0 (=100).
Same read-out and setting: as for B18, the figure is 104 % of control GpH7-A5/GpH7-B3/GpL16-k0 (=100).
Regarding B19, the He/Con_2b was 192 % of control GpH7-A5/GpH7-B3/GpL16-k0 (=100).
B20: the Ho/Con_2b was 109 % of control GpH7-B3/GpL16-k0 (=100).
In the case of B21, the He/Con_2b is 109 % of control GpH7-A5/GpH7-B3/GpL16-k0 (=100).
Same read-out and setting: the value for B22 was 109 % of control GpH7-A5/GpH7-B3/GpL16-k0 (=100); that for B23 was 107 % of control GpH7-A5/GpH7-B3/GpL16-k0 (=100).
As to B24, the He/Con_2b is 310 % of control GpH7-A5/GpH7-B3/GpL16-k0 (=100).
For B25, the Ho/Con_2b was 107 % of control GpH7-B3/GpL16-k0 (=100).
B26: the Ho/Con_2b is 109 % of control GpH7-B3/GpL16-k0 (=100).
